In paper doi:10.1101/2021.07.12.452090 (bioRxiv, 2021) one finds Kd data, which are given here for 5 molecules.

The chains are these.
B1: aCTLA-4.24 (antibody, V domains shown)
VH: QVQLVESGGGVVQPGRSLRLSCAASGFTFSSHGMHWVRQAPGKGLEWVAVIWYDGSNKHYADSVKGRFTISRDNSKNTLYLQMNSLRAEDTAVYYCARGDILTGYYGYWGQGTLVTVSS
VL: not shown
B2: aCTLA-4.9 (antibody, V domains shown)
VH: QVQLVESGGGVVQPGRSLRLSCAASGFTFSSFGMHWVRQAPGKGLEWVAVIWYDGRNKYYVDSVKGRFTISRDNSNNTLYLQMNSLRAEDTAVYYCARGEFFGEFFDYWGQGTLVTVSS
VL: EIVLTQSPGTLSLSPGEGATLSCRASQSFSSNYLAWYQQKPGQAPRLLIYGASSRATGIPDRFSGSGSGTDFTLTISRLEPEDFAVYYCQQYGTSPFTFGPGTKVDIK
B3: aCTLA-4.26 (antibody, V domains shown)
VH: QVQLVESGGGVVQPGRSLRLSCAASGFTFSSYGMHWVRQAPGKGLEWVAVIWYDGSYKYYADSVKGRFTISRDDSKNTLYLQMSSLRAEDTAVYYCARAPHYAILTGYYEDYWGQGTLVTVSS
VL: not shown
B4: aCTLA-4.4 (antibody, V domains shown)
VH: QVQLVESGGGVVQPGRSLRLSCAASGFTFSNYGMNWVRQAPGKGLEWVAVIWYDGRNKHYADSVKGRFTISRDNSKNTLYLQMNSLRAEDTAVYYCARGGDWGPYFDYWGQGTLVTVSS
VL: not shown
B5: aCTLA-4.1 (antibody, V domains shown)
VH: QVQLVESGGGVVQPGRSLRLSCAASGFTFSRYGMHWVRQAPGKGLEWVAVIWYDGRNKYYADSVKGRFTISRDNSKNTLYLQMNSLRAEDTALYSCARAGELGPFDYWGQGTLVTVSS
VL: EIVLTQSPGTLSLSPGERATLSCRASQSVSYLAWYQQKPGQAPRLLIYGASSRATGIPDRFSGSGSGTDFTLTISRLEPEDFAVYYCQQYGSSPWTFGQGTKVEIK

The target in the assay is His-tagged human CTLA-4 antigen (Homo sapiens, UniProt P16410).
Sequence of His-tagged human CTLA-4 antigen (P16410 36-161): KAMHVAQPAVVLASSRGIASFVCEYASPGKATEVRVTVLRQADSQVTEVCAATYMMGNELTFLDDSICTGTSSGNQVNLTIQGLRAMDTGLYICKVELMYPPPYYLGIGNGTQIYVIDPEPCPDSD
In general, Kd refers to a measure of binding affinity in units of concentration. Higher therefore signals a looser complex. In turn, B1 yielded a Kd of 6.8 nM. This counts as single-digit nanomolar. As to B2, binding was characterised by a dissociation constant (Kd) of 0.77 nM. With B3, the Kd was 5.7 nM. This Kd is about 7.4-fold higher than that of the molecule before. The result for B4 reads 5.1 nM. The result for B5 reads 4.6 nM.
